# Like-named read-outs stand apart in the source and are kept apart here.
# B1: scPDGF, yeast-displayed (ligand)
# chain: IAEPAMIAECKTRTEVFEISRRLIDRTNANFLVWPPCVEVQRCSGCCNNRNVQCRPTQVQLRPVQVRKIEIVRKKPIFKKATVTLEDHLACKCETVAAGSTSGSGKSSEGKGIAEPAMIAECKTRTEVFEISRRLIDRTNANFLVWPPCVEVQRCSGCCNNRNVQCRPTQVQLRPVQVRKIEIVRKKPIFKKATVTLEDHLACKCETVAA
# B2: PVAM (4-22 RF), yeast-displayed (designed binder)
# chain: IAEPAMIAECHPIETLVDILQEYPDEIGYIFKPSCVPLMRCGGCCNNRNVQCRPTEESNITMQIMRIKPHRGQHIGEMSFLQHNKCRCETVAAGSTSGSGKSSEGKGEVVKFMDVYQRSYCKTRTEVFEISRRLIDRTNANFLVWPPCVEVQRCSGCCNHEGLECVPTQVQLRPVQVRKIEFVRKKPIFKKATVTLEDHLACECRPKKD
# notes: Combines K87R and I182F with F20L, E28G, Q71R and D160H
# Key:
# [1] = molecular target: T1, PDGFRβ-His (residues 1-314 of PDGFR-β with C-terminal hexahistidine tag) (human, UniProt P09619 33-314); test: titration on yeast-displayed scPDGF, flow cytometry, anti-His
# T1 construct: range 1-314; Monovalent form, expressed in FreeStyle 293-F cells; also called PDGRβ-His; PDGFR-His
# T1 sequence (P09619 other isoform, or with tags, fused parts or gaps limits assumed, form in doubt): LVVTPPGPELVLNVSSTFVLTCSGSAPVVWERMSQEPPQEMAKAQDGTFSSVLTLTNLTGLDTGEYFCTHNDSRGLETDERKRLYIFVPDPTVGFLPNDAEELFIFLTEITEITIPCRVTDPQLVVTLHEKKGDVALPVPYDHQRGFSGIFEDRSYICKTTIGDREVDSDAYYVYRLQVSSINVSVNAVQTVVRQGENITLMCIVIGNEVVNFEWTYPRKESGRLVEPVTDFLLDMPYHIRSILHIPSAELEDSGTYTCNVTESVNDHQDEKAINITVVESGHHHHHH
# Description: (§1) Cells were incubated in large enough volumes to avoid ligand depletion and appropriate time to reach equilibrium. During the last hour of incubation, yeast were incubated with 1:250 dilution of chicken anti-c-Myc (Invitrogen) in PBSA. […] Yeast were washed, pelleted, and resuspended in PBSA immediately before analysis by flow cytometry using BD FACSCalibur or BD Accuri C6. Flow cytometry data were analyzed using FlowJo (v7.6.1 and v10, Treestar) or BD Accuri C6 software. Statistical analysis was performed using GraphPad Prism 6.
# (§2) Bound protein was detected using fluorescently-labeled anti-His and anti-mouse-Fc antibodies.
# [2] = molecular target: T2, PDGFRβ-Fc (residues 1-314 of PDGFR-β fused to the Fc region of mouse IgG2a) (human; mouse, UniProt P09619 33-314); test: titration on yeast-displayed scPDGF, flow cytometry, anti-mouse-Fc
# T2 construct: range 1-314; Expressed in FreeStyle 293-F cells; also called PDGRβ-Fc; PDGFR-Fc; not shown: Fc region of mouse IgG2a
# T2 sequence (P09619 33-314 limits assumed, form in doubt): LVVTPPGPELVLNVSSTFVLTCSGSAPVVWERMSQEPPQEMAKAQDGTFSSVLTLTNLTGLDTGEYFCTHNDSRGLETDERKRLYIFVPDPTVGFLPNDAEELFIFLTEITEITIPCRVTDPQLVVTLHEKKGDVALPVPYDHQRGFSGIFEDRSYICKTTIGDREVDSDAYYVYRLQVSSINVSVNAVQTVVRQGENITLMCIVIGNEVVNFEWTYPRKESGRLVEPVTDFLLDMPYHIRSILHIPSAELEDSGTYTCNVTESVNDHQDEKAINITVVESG
# Description: as §1, §2
# [3] = molecular target: T2, PDGFRβ-Fc (residues 1-314 of PDGFR-β …); test: yeast surface display titration; PDGF taken as yeast-displayed scPDGF
# [4] = molecular target: T1, PDGFRβ-His (residues 1-314 of PDGFR-β …); test: yeast surface display titration, flow cytometry
# [5] = molecular target: T3, VEGFR2-His (residues 1-764 of VEGFR2, Ig-like domains 1-7, with hexahistidine tag) (human, UniProt P35968 20-764); test: yeast surface display titration, flow cytometry
# T3 construct: range 1-764; Monomeric form, expressed in FreeStyle 293-F cells; also called VEGFR-His
# T3 sequence (P35968 other isoform, or with tags, fused parts or gaps limits assumed, form in doubt): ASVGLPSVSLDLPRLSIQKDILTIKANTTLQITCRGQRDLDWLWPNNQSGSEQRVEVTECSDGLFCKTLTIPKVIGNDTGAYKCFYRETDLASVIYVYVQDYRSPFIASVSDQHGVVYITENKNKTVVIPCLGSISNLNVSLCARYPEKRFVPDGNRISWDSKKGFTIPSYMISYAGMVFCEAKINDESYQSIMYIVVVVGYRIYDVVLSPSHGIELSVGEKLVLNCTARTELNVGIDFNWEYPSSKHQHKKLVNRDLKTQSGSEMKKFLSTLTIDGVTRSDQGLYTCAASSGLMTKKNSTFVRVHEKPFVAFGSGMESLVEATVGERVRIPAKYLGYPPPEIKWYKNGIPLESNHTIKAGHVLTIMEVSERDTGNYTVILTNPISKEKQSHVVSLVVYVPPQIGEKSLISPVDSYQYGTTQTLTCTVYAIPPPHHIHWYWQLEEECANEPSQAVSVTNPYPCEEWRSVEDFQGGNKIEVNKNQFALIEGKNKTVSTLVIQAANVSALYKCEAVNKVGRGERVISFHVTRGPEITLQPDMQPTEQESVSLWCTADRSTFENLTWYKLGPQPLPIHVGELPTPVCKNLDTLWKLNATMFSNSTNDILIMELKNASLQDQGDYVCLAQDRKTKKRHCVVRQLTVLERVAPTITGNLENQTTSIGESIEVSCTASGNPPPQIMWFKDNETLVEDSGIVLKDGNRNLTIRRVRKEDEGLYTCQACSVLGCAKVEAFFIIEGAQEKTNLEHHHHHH
# [6] = molecular target: T1, PDGFRβ-His (residues 1-314 of PDGFR-β …); test: yeast surface display titration, flow cytometry; remark: listed apart in the source
# Description: as §1
# [7] = molecular target: T3, VEGFR2-His (residues 1-764 of VEGFR2, …); test: yeast surface display titration, flow cytometry; remark: listed apart in the source
# Description: as §1
# [8] = molecular target: T1, PDGFRβ-His (residues 1-314 of PDGFR-β …); test: yeast surface display titration, flow cytometry; remark: listed apart in the source
# Description: as §1
# [9] = molecular target: T3, VEGFR2-His (residues 1-764 of VEGFR2, …); test: yeast surface display titration, flow cytometry; remark: listed apart in the source
# Description: as §1
# [10] = molecular target: T1, PDGFRβ-His (residues 1-314 of PDGFR-β …); test: yeast surface display, flow cytometry titration of PDGFRβ-His (panel 'PDGFRβ binding')
# Description: as §1
# [11] = molecular target: T3, VEGFR2-His (residues 1-764 of VEGFR2, …); test: yeast surface display, flow cytometry equilibrium titration of VEGFR2-His, normalized fluorescence
# Description: as §1
# [12] = molecular target: T4, soluble PDGFRβ (Fc or His format not stated for the experiment) (human, UniProt P09619 33-532); test: binding titration (FIG. 12); taken as yeast display, receptor format not stated; to PDGFR; receptor format not stated
# T4 construct: extracellular domain
# T4 sequence (P09619 33-532): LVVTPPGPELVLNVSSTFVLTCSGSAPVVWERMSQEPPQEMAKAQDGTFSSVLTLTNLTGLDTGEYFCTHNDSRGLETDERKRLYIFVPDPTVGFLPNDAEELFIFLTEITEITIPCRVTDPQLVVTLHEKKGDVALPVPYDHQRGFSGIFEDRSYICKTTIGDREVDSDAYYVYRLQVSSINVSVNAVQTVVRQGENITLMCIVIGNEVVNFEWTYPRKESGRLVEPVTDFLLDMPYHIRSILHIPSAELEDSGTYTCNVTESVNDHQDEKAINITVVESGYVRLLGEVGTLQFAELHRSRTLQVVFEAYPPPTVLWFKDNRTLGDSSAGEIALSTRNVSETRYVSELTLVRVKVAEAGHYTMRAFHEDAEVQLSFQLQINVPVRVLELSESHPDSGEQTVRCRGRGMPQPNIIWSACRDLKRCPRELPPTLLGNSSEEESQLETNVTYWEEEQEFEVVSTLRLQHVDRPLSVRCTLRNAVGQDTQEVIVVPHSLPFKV
# [13] = molecular target: T5, soluble VEGFR2 (Fc or His format not stated for the experiment) (human, UniProt P35968 20-764); test: binding titration (FIG. 12); taken as yeast display, receptor format not stated; to VEGFR; receptor format not stated
# T5 construct: extracellular domain
# T5 sequence (P35968 20-764): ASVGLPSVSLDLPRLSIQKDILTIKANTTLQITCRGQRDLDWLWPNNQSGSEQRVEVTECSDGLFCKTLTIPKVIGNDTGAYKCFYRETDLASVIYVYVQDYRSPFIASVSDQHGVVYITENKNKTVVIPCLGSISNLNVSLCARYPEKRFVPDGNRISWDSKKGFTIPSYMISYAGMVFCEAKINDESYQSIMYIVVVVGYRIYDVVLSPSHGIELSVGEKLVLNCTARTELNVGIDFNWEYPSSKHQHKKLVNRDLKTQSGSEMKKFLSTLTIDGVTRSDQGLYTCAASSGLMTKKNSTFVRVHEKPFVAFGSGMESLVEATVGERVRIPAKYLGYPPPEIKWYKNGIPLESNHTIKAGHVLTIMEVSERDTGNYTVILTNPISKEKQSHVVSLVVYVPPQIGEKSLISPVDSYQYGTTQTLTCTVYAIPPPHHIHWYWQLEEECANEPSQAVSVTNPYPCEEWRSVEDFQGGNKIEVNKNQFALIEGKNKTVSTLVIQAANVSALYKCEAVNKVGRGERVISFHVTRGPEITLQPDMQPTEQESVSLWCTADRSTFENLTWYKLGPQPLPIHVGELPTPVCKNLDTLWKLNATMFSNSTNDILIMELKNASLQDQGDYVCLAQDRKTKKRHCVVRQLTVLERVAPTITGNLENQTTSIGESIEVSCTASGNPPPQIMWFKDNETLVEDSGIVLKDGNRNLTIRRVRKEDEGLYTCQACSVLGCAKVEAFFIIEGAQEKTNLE
# [14] = molecular target: T4, soluble PDGFRβ (Fc or His format not …); test: yeast surface display, flow cytometry titration of soluble receptor; panel 'PDGFR binding', Fc or His form not given
# [15] = molecular target: T1, PDGFRβ-His (residues 1-314 of PDGFR-β …); test: yeast surface display, flow cytometry equilibrium titration of PDGFRβ-His (panel 'PDGFR-His'), normalized fluorescence
# Description: as §1
Binder,Kd [1] [pM],Kd [2] [pM],Kd [3] [pM],fold improvement compared to PV6 [4] [fold],fold improvement compared to PV6 [5] [fold],Kd [6] [pM],Kd [7] [pM],Kd [8] [pM],Kd [9] [pM],EC50 (read off the curve) [10] [pM],EC50 (read off the curve) [11] [pM],Kd [12] [pM],Kd [13] [pM],EC50 (read off the curve) [14] [pM],EC50 (read off the curve) [15] [pM]
B1,310000,28,~40,–,–,–,–,–,–,–,–,–,–,–,–
B2,–,–,–,1100,200,390,1100,390,1100,~300,~1000,210,2100,~200,~400
